Results on five molecules are retold here after US20210087288A1 (Genentech, published 2021).

Experiment [1] deals with T1, Cyno TfR extracellular domain (analogous ecd construct) (cynomolgus monkey, UniProt Q5RDH6 87-760 (Pongo abelii entry)).
T1 construct: it is not expressly said to be the cyno construct; also called purified cyno TfR
T1 chain: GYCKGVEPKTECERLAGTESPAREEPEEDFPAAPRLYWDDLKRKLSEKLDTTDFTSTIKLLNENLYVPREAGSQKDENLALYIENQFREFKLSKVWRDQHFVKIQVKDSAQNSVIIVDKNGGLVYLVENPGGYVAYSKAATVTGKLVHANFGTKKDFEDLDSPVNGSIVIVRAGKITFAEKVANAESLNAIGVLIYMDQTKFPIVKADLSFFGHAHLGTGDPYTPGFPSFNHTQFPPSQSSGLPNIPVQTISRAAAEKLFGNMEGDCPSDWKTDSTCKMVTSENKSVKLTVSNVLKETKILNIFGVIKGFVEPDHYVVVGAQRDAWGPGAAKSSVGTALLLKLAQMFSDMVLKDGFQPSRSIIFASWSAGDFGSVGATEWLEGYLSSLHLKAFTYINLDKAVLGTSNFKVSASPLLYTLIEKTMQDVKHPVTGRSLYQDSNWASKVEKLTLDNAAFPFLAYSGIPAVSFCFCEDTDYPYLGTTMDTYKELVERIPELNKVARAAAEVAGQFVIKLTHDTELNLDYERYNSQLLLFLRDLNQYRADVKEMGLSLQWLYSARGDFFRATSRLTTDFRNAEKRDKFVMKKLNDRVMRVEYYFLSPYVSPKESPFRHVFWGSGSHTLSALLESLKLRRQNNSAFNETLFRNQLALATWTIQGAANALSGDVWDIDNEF
Description: SPR (Biacore), IgG, TfR captured by anti-His. The method, then: (§1) Antibody affinities were measured using surface plasmon resonance (“SPR”) (Biacore™ GE Healthcare). Anti-His antibody (Qiagen) was coupled onto four different flow cells of a BIACORE™ CM5 sensor chip (Biacore, Inc., Piscataway, N.J.) at between 6000 and 8000 RU. Immobilization was achieved by random coupling through amino groups using a protocol provided by the manufacturer. 10×HBS-P (Biacore, Inc., Piscataway, N.J.) was diluted in water and served as the dilution and running buffer. Purified human or cyno TfR was captured, followed by a 3-fold dilution series of IgG or Fab that was injected at a flow rate of […] using the single cycle kinetics method. Affinity constants were determined using a simple 1:1 Langmuir binding model or using a steady state model when kₒₙ or koff was beyond the detection limit. The equilibrium dissociation constant (KD) was calculated as the ratio of […].
(§2) The affinity of humanized variants for human and cyno TfR was determined by SPR as IgG (FIG. 4E). Selected clones were also analyzed by SPR as Fab to assess monovalent affinity (Table 7). In both cases, the SPR experiments were performed as described above.
For orientation: SPR reads the build-up and loss of mass on a sensor chip optically.

The target of experiment [2] is T2, Human TfR extracellular domain (ecd) containing an N-terminal His tag (human, UniProt P02786 89-760).
T2 construct: Biotinylated in some ELISAs; also called huTfR; HuTfR
Description: SPR (Biacore), IgG, TfR captured by anti-His. The method, then: as §1, §2

The target of experiment [3] is T1, Cyno TfR extracellular domain …. Description: ratio of KD on cyno TfR to KD on human TfR, SPR. The procedure: as §1, §2
Experiment [4] has the same target. Description: SPR, captured His-TfR, Fab analyte. The method, then:
as §1, §2

Experiment [5] deals with T2, Human TfR extracellular domain (ecd) …. Put plainly: SPR, captured His-TfR, Fab analyte. The method, then: as §1, §2

Where “and” joins values, the source holds several entries; their conditions need not be identical. Equal entries are not always repeated.

B1: hu7A4.v5 (antibody, V domains shown)
VH: EVQLVQSGAEVKKPGASVKVSCKASGYTFTDYAMHWVRQAPGQGLEWMGGISTYFGRTNYNQKFKGRVTMTRDTSISTAYMELSRLRSDDTAVYYCARGLSGNYVMDYWGQGTTVTVSS
VL: DIVMTQSPDSLAVSLGERATINCRASESVDSYGNSFMHWYQQKPGQPPKLLIYRASNLESGIPDRFSGSGSGTDFTLTISSLQAEDVAVYYCQQSNEGPPTFGQGTKLEIK
As a reminder, the Kd is the free concentration of one partner at which half of the binding sites on the other are occupied at equilibrium, for simple one-to-one binding. Higher therefore signals weaker binding. The molecule B1 showed a Kd in experiment [1] of 1.2 nM.

B2: hu7A4.v8 (antibody, V domains shown)
VH: EVQLVQSGAEVKKPGASVKVSCKGSGYTFTDYAMHWVRQAPGQGLEWMGGISTYFGRTNYNQKFKGRVTMTVDTSISTAYMELSRLRSDDTAVYYCARGLSGNYVMDYWGQGTTVTVSS
VL: DIVMTQSPDSLAVSLGERATINCRASESVDSYGNSFMHWYQQKPGQPPKLLIYRASNLESGIPDRFSGSGSGTDFTLTISSLQAEDVAVYYCQQSNEGPPTFGQGTKLEIK
The molecule B2 had a Kd in experiment [1] of 12.3 nM.

B3: hu16F6.v2 (antibody, V domains shown)
VH: EVQLVESGPGLVKPSETLSLTCTVSGNSITSEYAWNWIRQPPGKGLEWIGYISYSGTTSYNPSLKSRVTISRDTSKNQLSLKLSSVTAADTAVYYCARYGYGNPATRYFDVWGQGTLVTVSS
VL: DIQMTQSPSSLSASVGDRVTITCRASKSISKYLAWYQQKPGKAPKLLLYSGSTLQSGVPSRFSGSGSGTDYTLTISSLQPEDFATYYCQQHNEYPWTFGQGTKVEIK
For B3, the Kd in experiment [1] was determined as 68.1 nM; in experiment [2], 4.25 nM.

B4: Hu15G11.HC32A Fab (Fab, V domains shown)
VH: EVQLVQSGAEVKKPGASVKVSCKASGYTFTSAWMHWVRQAPGQRLEWIGEINPTNGRTNYIEKFKSRATLTVDKSASTAYMELSSLRSEDTAVYYCARGTRAYHYWGQGTMVTVSS
VL: DIQMTQSPSSLSASVGDRVTITCRASDNLYSNLAWYQQKPGKSPKLLVYDATNLADGVPSRFSGSGSGTDYTLTISSLQPEDFATYYCQHFWGTPLTFGQGTKVEIK
notes: Purified Fab; also called Y32A Fab
Usually koff stands for the first-order rate constant of dissociation. Lower therefore signals slow dissociation. Usually kon stands for the rate constant with which the complex forms. B4: in experiment [3], the Cy/hu ratio is 6.4. In experiment [4], the koff worked out at 0.00851 s⁻¹ and the kon turned out to be 177000 M⁻¹ s⁻¹. Also, in experiment [5], the koff turned out to be 0.00178 s⁻¹ and the kon was 238000 M⁻¹ s⁻¹.

B5: Hu15G11.HC52A Fab (Fab, V domains shown)
VH: EVQLVQSGAEVKKPGASVKVSCKASGYTFTSYWMHWVRQAPGQRLEWIGEIAPTNGRTNYIEKFKSRATLTVDKSASTAYMELSSLRSEDTAVYYCARGTRAYHYWGQGTMVTVSS
VL: DIQMTQSPSSLSASVGDRVTITCRASDNLYSNLAWYQQKPGKSPKLLVYDATNLADGVPSRFSGSGSGTDYTLTISSLQPEDFATYYCQHFWGTPLTFGQGTKVEIK
notes: Purified Fab; also called N52A Fab
For B5, the Cy/hu ratio in experiment [3] came to 2.6. In experiment [4], this molecule displayed a koff of 0.0567 s⁻¹ and a kon of 487000 M⁻¹ s⁻¹. Besides, in experiment [5], the koff is 0.0236 s⁻¹ and 0.0196 s⁻¹; the kon was 530000 M⁻¹ s⁻¹ and 564000 M⁻¹ s⁻¹.
